Data: PMC8809517, “Cofactor-independent RNA editing by a synthetic S-type PPR protein”
Positions count from the first letter of the chain named.

Key:
Experiment in all cases: high-throughput RNA pulldown from lysate on Ni-NTA beads; HRP: 50 mM Tris pH 8, 150 mM NaCl, 1 mM beta-mercaptoethanol, 50 ug/ml BSA, 3 ug/ml yeast RNA, 0.5% heparin; ITC and FP: Tris pH 8, 200 mM KCl, 5% glycerol; MST: 50 mM Tris pH 8, 200 mM NaCl, 1 mM DTT, BSA, heparin, 0.05% Tween 20
Conditions in all cases: tags: N-terminal His-eGFP
[1] = molecular target: T1, GFP-9S library array, motif 4 ND N98A;D124T (synthetic construct, N98A;D124T)
T1 chain: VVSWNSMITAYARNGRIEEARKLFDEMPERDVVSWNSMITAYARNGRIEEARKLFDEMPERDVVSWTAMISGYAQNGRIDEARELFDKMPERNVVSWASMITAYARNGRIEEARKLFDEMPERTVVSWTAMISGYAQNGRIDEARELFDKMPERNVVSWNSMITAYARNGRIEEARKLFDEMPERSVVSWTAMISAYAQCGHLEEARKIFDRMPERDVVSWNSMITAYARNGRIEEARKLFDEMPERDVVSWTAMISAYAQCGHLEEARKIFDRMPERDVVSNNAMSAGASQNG

[2] = molecular target: T2, GFP-9S library array, motif 4 ND N98S;D124R (synthetic construct, N98S;D124R)
T2 chain: T1 chain with A98S, T124R

[3] = molecular target: T3, GFP-9S library array, motif 4 ND N98F;D124Q (synthetic construct, N98F;D124Q)
T3 chain: T1 chain with A98F, T124Q

[4] = molecular target: T4, GFP-9S library array, motif 4 ND N98W;D124M (synthetic construct, N98W;D124M)
T4 chain: T1 chain with A98W, T124M

[5] = molecular target: T5, GFP-9S library array, motif 4 ND N98S;D124T (synthetic construct, N98S;D124T)
T5 chain: T1 chain with A98S

B1: Cy5-rpoA (ssRNA)
RNA: AUUACACGUGA
[1]; label: 5' Cy5
  Kd: 102 nM
[2]; label: 5' Cy5
  Kd: 87.7 nM
[3]; label: 5' Cy5
  Kd: 158 nM
[4]; label: 5' Cy5
  Kd: 96.1 nM
[5]; label: 5' Cy5
  Kd: 187 nM

B2: IR-rpoA-A (ssRNA)
RNA: AUUAAACGUGA
[1]; label: 5' IRDye 800CW
  Kd: 90.7 nM
[2]; label: 5' IRDye 800CW
  Kd: 63.5 nM
[3]; label: 5' IRDye 800CW
  Kd: 419 nM
[4]; label: 5' IRDye 800CW
  Kd: 235 nM
[5]; label: 5' IRDye 800CW
  Kd: 72.3 nM

B3: Cy5-rpoA-G (ssRNA)
RNA: AUUAGACGUGA
[1]; label: 5' Cy5
  Kd: 107 nM
[2]; label: 5' Cy5
  Kd: 97.8 nM
[3]; label: 5' Cy5
  Kd: 143 nM
[4]; label: 5' Cy5
  Kd: 102 nM
[5]; label: 5' Cy5
  Kd: 291 nM

B4: IR-rpoA-U (ssRNA)
RNA: AUUAUACGUGA
[1]; label: 5' IRDye 800CW
  Kd: 68.9 nM
[2]; label: 5' IRDye 800CW
  Kd: 109 nM
[3]; label: 5' IRDye 800CW
  Kd: 466 nM
[4]; label: 5' IRDye 800CW
  Kd: 175 nM
[5]; label: 5' IRDye 800CW
  Kd: 108 nM
